Results as given in publication PMC5487423 (2017).
Substitutions are numbered along the chain they refer to. Read-outs that look alike come from different tables or passages of the source.

Columns and labels:
Test in all cases: BLI
[1] = molecular target: CCL11 (human, UniProt P51671 24-97)
[2] = molecular target: T1, CCL11_MOUSE (Mus musculus)
T1 chain: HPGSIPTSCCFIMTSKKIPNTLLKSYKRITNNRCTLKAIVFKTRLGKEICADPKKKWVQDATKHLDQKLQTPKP

[3] = molecular target: CCL2 (human, UniProt P13500 24-99)
[4] = molecular target: CCL5_MOUSE (Mus musculus)
Chain of CCL5_MOUSE (Mus musculus) (P30882 24-91): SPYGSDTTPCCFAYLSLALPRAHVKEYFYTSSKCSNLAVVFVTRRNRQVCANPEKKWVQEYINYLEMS

[5] = molecular target: T2, CCL8 (human, UniProt P80075 24-99)
T2 chain: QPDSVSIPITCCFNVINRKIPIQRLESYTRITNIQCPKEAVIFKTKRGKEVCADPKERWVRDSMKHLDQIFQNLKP

[6] = molecular target: T3, CCL5 (human, UniProt P13501 24-91)
T3 chain: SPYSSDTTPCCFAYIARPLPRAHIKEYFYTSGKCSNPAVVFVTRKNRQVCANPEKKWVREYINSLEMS

[7] = molecular target: T4, CCL3_MOUSE (Mus musculus)
T4 chain: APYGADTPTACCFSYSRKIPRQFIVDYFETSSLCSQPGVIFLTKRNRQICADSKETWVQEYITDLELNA

[8] = molecular target: T5, CCL18_HUMAN (Homo sapiens)
T5 chain: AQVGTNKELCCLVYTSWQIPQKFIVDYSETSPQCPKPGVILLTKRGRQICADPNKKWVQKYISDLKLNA

[9] = molecular target: T6, CCL4_HUMAN (Homo sapiens)
T6 chain: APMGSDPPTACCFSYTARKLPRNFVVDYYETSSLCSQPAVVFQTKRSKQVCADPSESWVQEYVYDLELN

[10] = molecular target: T7, CCL3 (human, UniProt P10147 24-92)
T7 chain: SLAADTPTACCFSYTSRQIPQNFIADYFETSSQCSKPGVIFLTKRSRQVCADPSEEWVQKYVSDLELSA

[11] = molecular target: T8, CCL22_HUMAN (Homo sapiens)
T8 chain: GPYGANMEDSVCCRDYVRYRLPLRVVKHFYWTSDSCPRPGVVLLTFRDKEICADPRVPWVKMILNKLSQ

[12] = molecular target: CCL7 (human, UniProt P80098 24-99)
Chain of CCL7 (P80098 24-99): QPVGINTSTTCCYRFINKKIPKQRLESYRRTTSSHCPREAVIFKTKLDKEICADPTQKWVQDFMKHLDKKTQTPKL

[13] = molecular target: T9, CCL22_MOUSE (Mus musculus)
T9 chain: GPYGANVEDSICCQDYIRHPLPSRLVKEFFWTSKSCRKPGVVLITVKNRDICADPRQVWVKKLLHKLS

[14] = molecular target: CCL2_MOUSE (Mus musculus)
Chain of CCL2_MOUSE (Mus musculus) (chain, as listed by the source): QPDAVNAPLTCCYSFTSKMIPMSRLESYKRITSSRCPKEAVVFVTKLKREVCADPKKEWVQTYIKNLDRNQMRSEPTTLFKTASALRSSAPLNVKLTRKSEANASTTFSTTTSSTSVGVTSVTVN

[15] = molecular target: T10, CCL4L1_HUMAN (Homo sapiens)
T10 chain: T6 chain with S47G

[16] = molecular target: T11, CCL4_MOUSE (Mus musculus)
T11 chain: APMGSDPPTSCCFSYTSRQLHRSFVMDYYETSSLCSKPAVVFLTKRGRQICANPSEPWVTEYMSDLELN

[17] = molecular target: T12, CCL19_HUMAN (Homo sapiens)
T12 chain: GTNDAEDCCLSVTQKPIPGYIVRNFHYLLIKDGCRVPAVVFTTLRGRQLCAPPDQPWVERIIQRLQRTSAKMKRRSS

[18] = molecular target: T13, CCL16_HUMAN (Homo sapiens)
T13 chain: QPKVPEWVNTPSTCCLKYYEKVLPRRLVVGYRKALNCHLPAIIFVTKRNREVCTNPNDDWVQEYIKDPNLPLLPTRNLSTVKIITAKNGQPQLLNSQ

[19] = molecular target: CCL13_HUMAN (Homo sapiens)
Chain of CCL13_HUMAN (Homo sapiens) (chain, as listed by the source): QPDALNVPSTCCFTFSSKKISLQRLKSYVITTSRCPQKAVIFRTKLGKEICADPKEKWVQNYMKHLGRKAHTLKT

[20] = molecular target: T14, CCL17_HUMAN (Homo sapiens)
T14 chain: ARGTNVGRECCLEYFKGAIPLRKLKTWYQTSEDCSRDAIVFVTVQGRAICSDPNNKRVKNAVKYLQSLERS

[21] = molecular target: T15, CCL24_HUMAN (Homo sapiens)
T15 chain: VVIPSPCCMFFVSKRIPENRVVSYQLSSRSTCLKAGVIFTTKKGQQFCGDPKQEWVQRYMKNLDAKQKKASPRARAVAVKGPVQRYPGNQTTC

[22] = molecular target: T2, CCL8
[23] = molecular target: T3, CCL5
[24] = molecular target: T12, CCL19_HUMAN
[25] = molecular target: T13, CCL16_HUMAN
[26] = molecular target: CCL13_HUMAN (Homo sapiens); remark: listed apart in the source

Chain of CCL11 (P51671 24-97): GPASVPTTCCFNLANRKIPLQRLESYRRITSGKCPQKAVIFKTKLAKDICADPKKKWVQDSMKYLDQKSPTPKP
Chain of CCL2 (P13500 24-99): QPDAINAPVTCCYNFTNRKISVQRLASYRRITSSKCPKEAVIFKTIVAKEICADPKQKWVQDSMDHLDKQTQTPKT

B1: P991_AMBCA, purified, C-terminal StrepII-8xHis tag (natural protein)
chain: ETGENGEGTTQPDYDNSTDYYNYEDFKCTCPAPHLNNTNGTVMKPIGCYYTCNVTRCTAPDTYPCYNLTEHQAKNLTTSPTTLCAVGNCDHGICVPNGTKELCFKAPNLEE
Kd [1]: 3.43 nM
Kd [2]: 1.11 nM
Kd [3]: 12.2 nM
Kd [4]: 2.12 nM
Kd [5]: 8.79 nM
Kd [6]: 1.47 nM
Kd [7]: 2.48 nM
Kd [8]: 0.209 nM
Kd [9]: 5.82 nM
Kd [10]: 1.08 nM
Kd [11]: 3.97 nM
Kd [12]: 0.514 nM
Kd [13]: 8.59 nM
Kd [14]: 24.3 nM
Kd [15]: 0.827 nM
Kd [16]: 0.401 nM
Kd [17]: 14.4 nM
Kd [18]: 1.28 nM
Kd [19]: 0.419 nM
Kd [20]: 7.66 nM
Kd [21]: 6.54 nM
Kd [22]: 8.8 nM
Kd [23]: 1.5 nM
Kd [24]: 14 nM
Kd [25]: 1.3 nM
Kd [26]: 0.42 nM
